B1: mRNA-splicing (parent)
chain: AGUUGCUGCUGGGAGCUCCAGCACAGUGAAAUGGACAGAAGGGCAGAGCAA

Variants of: B1
Test: exon inclusion enrichment index; higher = more inclusion; WT1 exon 5 minigene, HEK293

Row | Variant | exon inclusion enrichment index
1 | AGUACACACAGGGAGCUCCAGCACAGUGAAAUGGACAGAAGGGCAGAGCAA [U4A G5C C6A U7C G8A U10A] | 0.0584
2 | AGUUUCUUUUGGGAGCUCCAGCACAGUGUAAUGGACAGAAGGGCAGAGCAA [G5U G8U C9U A29U] | 0.0318
3 | AGUUUCUUUCGGGAGCUCCAGCACAGUGAAAUGGACAGAAGGGCAGAGCAA [G5U G8U C9U U10C] | 0.561
4 | AGUUGCUGCUGGGAGCUCCAGCACAACGAAAUGGACAGAAGGGCAGAGCAA [G26A U27C] | 0.0175
5 | AGUUCACACAGGGAGCUCCAGCACAGUGAAAUGGACAGAAGGGCAGGCCAA [G5C C6A U7C G8A U10A A47G G48C] | 0.0266
6 | AGUUGCUGCUGGGAGCUCCAGCACAGUGAAACUGACAGAAGGGCAGAGCAA [U32C G33U] | 0.0526
7 | AGUUGCUGCUGGGAGCUCCAGCACAGUGAAAUGGACAUGAGGGCAGAGCAA [G38U A39G] | 0.0472
8 | AGUUACCACCGGGAGCUCCAGAACAGUGAAAUGGACAGAAGGGCAGAGCAA [G5A U7C G8A U10C C22A] | 2.32
9 | AGUUGAAGAAGGGAGCUCCUACACAGUGAAAUGGACAGAAGGGCAGAGCAA [C6A U7A C9A U10A A20U G21A] | 0.432
10 | AGUUCACACAGGGAGCUCCAGCACAGUGAAAGUGACAGAAGGGCAGAGCAA [G5C C6A U7C G8A U10A U32G G33U] | 0.009
11 | AUUUCACACAGGGAGCUCCAGCACAGUGAAAUGGACAGAAGGGCAGAGCAA [G2U G5C C6A U7C G8A U10A] | 0.329
12 | AGUUAGGGAUGAUAGCUCCAGCACAGUGAAAUGGACAGAAGGGCAGAGCAA [G5A C6G U7G C9A G12A G13U] | 0.00417
13 | AGUUUCCGCCGGGAGCUCCAGCACAGUGAAAUGGACAGAAGGGCAGAGCAA [G5U U7C U10C] | 3.02
14 | AGUUUCUUUUGGGAGCUCCAGUGCAGUGAAAUGGACAGAAGGGCAGAGCAA [G5U G8U C9U C22U A23G] | 0.109
15 | AGUUGAUCAAGGGAGCUCCAGCACAGUGAAAUGGACAGAAGGGCAGAGCAA [C6A G8C C9A U10A] | 0.392
16 | AGUUGACGACGGGAGCUCCAGCACAGUGAAAGGGACAGAAGGGCAGAGCAA [C6A U7C C9A U10C U32G] | 0.701
17 | AGUUGCUGCUGGGAGCUCCAGCACAGUGAAAUGCACAGAAGGGCAGAGCAA [G34C] | 0.0362
18 | AGUUAUAUAUGGGAGCUCCAGCACAGUGAAAUCUACAGAAGGGCAGAGCAA [G5A C6U U7A G8U C9A G33C G34U] | 0.0325
19 | AGUUGACGACGGGAGCUCCAGCACAGUGAAAUGGACAGUCGGGCAGAGCAA [C6A U7C C9A U10C A39U A40C] | 3.44
20 | AGUUAGGGAUGUUAGCUCCAGCACAGUGAAAUGGACAGAAGGGCAGAGCAA [G5A C6G U7G C9A G12U G13U] | 0.000533
21 | AGUUCGCGCCGGGAGCUCCAGCCUAGUGAAAUGGACAGAAGGGCAGAGCAA [G5C C6G U7C U10C A23C C24U] | 2.07
22 | AGUUUCCACCGGGAGCUCCAGCACAGUGAAAUGGACAGAAGGGCAGAGCAA [G5U U7C G8A U10C] | 1.83
23 | AGUUGAAGACGGGAGCUCCAGCACAGUGAAAUGGACAGAAGGGCAGAGCAA [C6A U7A C9A U10C] | 2.59
24 | AGUUGCUGCUGGGAGCUCCAGCACAGUGAAAUGGACAGGGGGGCAGAGCAA [A39G A40G] | 0.0122
25 | AGUUCGCGCCGGGAGCUCCAGCACAGCAAAAUGGACAGAAGGGCAGAGCAA [G5C C6G U7C U10C U27C G28A] | 3.28
26 | AGUUCUUCUCGGGAGCUCCAGCACAGUGAAAUGGACGGAAGGGCAGAGCAA [G5C C6U G8C C9U U10C A37G] | 2.83

Row | Variant | exon inclusion enrichment index
27 | AACUCGCGCCGGGAGCUCCAGCACAGUGAAAUGGACAGAAGGGCAGAGCAA [G2A U3C G5C C6G U7C U10C] | 3.58
28 | AGUUACCACCGGGAGCUCCAGCACAGUGAAAUUUACAGAAGGGCAGAGCAA [G5A U7C G8A U10C G33U G34U] | 0.351
29 | AGUUAGUCAUGGGAGCUCCAGCACAGUGAAAUGGACAGAAGGGCAGAGCAA [G5A C6G G8C C9A] | 0.0264
30 | AGAGGACGACGGGAGCUCCAGCACAGUGAAAUGGACAGAAGGGCAGAGCAA [U3A U4G C6A U7C C9A U10C] | 1.54
31 | AGUUAGGGAUGGGUUCUCCAGCACAGUGAAAUGGACAGAAGGGCAGAGCAA [G5A C6G U7G C9A A14U G15U] | 0.000762
32 | AGUUGCUGCUGGGAGCUCCAGCACAGUGAAAUGGACAGAAUCGCAGAGCAA [G41U G42C] | 0.49
33 | AGUUGAAGAAGGGAGCUCCAGCACAGUGAAACUGACAGAAGGGCAGAGCAA [C6A U7A C9A U10A U32C G33U] | 0.476
34 | AGUUCUUCUCGGGAGCUAGAGCACAGUGAAAUGGACAGAAGGGCAGAGCAA [G5C C6U G8C C9U U10C C18A C19G] | 0.289
35 | AGUUGACGACGGGAGCUCCAGCACAGUGAAAUGGACAGAAGGUCAGAGCAA [C6A U7C C9A U10C G43U] | 2.81
36 | AGUUAGGGAUGGGAGCUCCAGCACAGUGAAAUGGACAGAAGGGCAGUUCAA [G5A C6G U7G C9A A47U G48U] | 0.000738
37 | AGUUACCACCGGGAGCUCCAGCACAGUGAAAUGGAAGGAAGGGCAGAGCAA [G5A U7C G8A U10C C36A A37G] | 1.06
38 | AGUUAUAUAUGGGAGCUCCAGCACAGUGAAAUGGACGUAAGGGCAGAGCAA [G5A C6U U7A G8U C9A A37G G38U] | 0.0165
39 | AGUUGAAGAAGGGAGCUCCACCACAGUGAAAUGGACAGAAGGGCAGAGCAA [C6A U7A C9A U10A G21C] | 0.86
40 | AGUUAGGGUAGGGAGCUCCAGCACAGUGAAAUGGACAGAAGGGCAGAGCAA [G5A C6G U7G C9U U10A] | 0.00106
41 | AGGAGAAGAAGGGAGCUCCAGCACAGUGAAAUGGACAGAAGGGCAGAGCAA [U3G U4A C6A U7A C9A U10A] | 0.213
42 | AGUUCGCGCCCUGAGCUCCAGCACAGUGAAAUGGACAGAAGGGCAGAGCAA [G5C C6G U7C U10C G11C G12U] | 0.699
43 | AGUUAGGGAUGGGAGCUUGAGCACAGUGAAAUGGACAGAAGGGCAGAGCAA [G5A C6G U7G C9A C18U C19G] | 0.00111
44 | AGUUCACACAGGGAGCUCCAGCACGCUGAAAUGGACAGAAGGGCAGAGCAA [G5C C6A U7C G8A U10A A25G G26C] | 0.647
45 | AGUUGAAGAAGGGAGCCGCAGCACAGUGAAAUGGACAGAAGGGCAGAGCAA [C6A U7A C9A U10A U17C C18G] | 0.655
46 | AGUUAGGGAUGGGAGCUGAAGCACAGUGAAAUGGACAGAAGGGCAGAGCAA [G5A C6G U7G C9A C18G C19A] | 0.00169
47 | AGUUAGGGAUGGGAGCUCCAGCAAGGUGAAAUGGACAGAAGGGCAGAGCAA [G5A C6G U7G C9A C24A A25G] | 0.0011
48 | AGUUAGGGAUUCGAGCUCCAGCACAGUGAAAUGGACAGAAGGGCAGAGCAA [G5A C6G U7G C9A G11U G12C] | 0.00339
49 | AGUUUCUUUUGGGAGCUCCAGCAGGGUGAAAUGGACAGAAGGGCAGAGCAA [G5U G8U C9U C24G A25G] | 0.0358
50 | AGUUCACACAGGGAGCUCCAGCACAGUGAAAUGGACAGAAGAUCAGAGCAA [G5C C6A U7C G8A U10A G42A G43U] | 1.25
51 | AGUUCUUCUCGGGAGCUCCAGCACAGCCAAAUGGACAGAAGGGCAGAGCAA [G5C C6U G8C C9U U10C U27C G28C] | 2.52

Reference: the RNAGym collection of RNA variant scans (doi:10.1101/gr.219683.116)
